According to US20260070986A1 (AFFIMED, published 2026):
Each block holds one binder with its values, some of them ahead of it.

Experiments:
[1] = molecular target: T1, human CD16A (158F) on transfected CHO cells (cAg_34) (human, UniProt P08637 17-254); assay: flow cytometry on huCD16A-transfected CHO cells, anti-human IgG-APC detection
T1 construct: Exact cell-anchored construct not described; also called huCD16A
Protocol: To analyze binding of different antibody constructs to CHO cells transfected with human CD16A (cAg_34), relative to CD16 expression by flow cytometry, 1-2×10⁵ were resuspended in 100 μL FACS buffer (PBS (Invitrogen, cat.: 14190-169) containing 2% heat-inactivated FCS (Invitrogen, cat.: 10270-106), and 0.1% sodium azide (Roth, Karlsruhe, Germany, cat.: A1430.0100)) in round-bottom 96-well microtiter plates. After washing in FACS buffer, cells were incubated in 50 μL FACS buffer without antibodies or with titrated antibodies starting at a concentration of 100 μg/mL followed by ten 5-fold serial dilutions for 30 min on ice in the dark. After washing twice, cells were incubated with APC-conjugated goat anti-human IgG (H+L)-APC (Dianova, cat. 109-136-088) for 30 min on ice in the dark. […] After washing, binding was measured by flow cytometry and mean fluorescence intensities (MFI) of cell samples were calculated and corrected for background staining using control cells stained with secondary antibodies only.
(§1) Equilibrium dissociation constants (KD) of antibody binding were calculated by plotting MFI values and fitting a non-linear regression model for one-site binding to hyperbolic dose-response curves using GraphPad Prism.

[2] = molecular target: T1, human CD16A (158F) on transfected CHO …; assay: flow cytometry on huCD16A-transfected CHO cells (cAg_34), one-site fit of MFI, experiment 1
Protocol: (§2) After washing in FACS buffer, cells were incubated in 50 μL FACS buffer without antibodies or with titrated antibodies starting at a concentration of 100 μg/mL followed by ten 5-fold serial dilutions for 30 min on ice in the dark. After washing twice, cells were incubated with APC-conjugated goat anti-human IgG (H+L)-APC (Dianova, cat. 109-136-088) for 30 min on ice in the dark. […] After washing, binding was measured by flow cytometry and mean fluorescence intensities (MFI) of cell samples were calculated and corrected for background staining using control cells stained with secondary antibodies only.
as §1

[3] = molecular target: T1, human CD16A (158F) on transfected CHO …; assay: flow cytometry on huCD16A-transfected CHO cells (cAg_34), one-site fit of MFI, experiment 2
Protocol: as §2, §1

[4] = molecular target: T1, human CD16A (158F) on transfected CHO …; assay: flow cytometry on huCD16A-transfected CHO cells (cAg_34), one-site fit of MFI, experiment 3
Protocol: as §2, §1

[5] = molecular target: T1, human CD16A (158F) on transfected CHO …; assay: flow cytometry on huCD16A-transfected CHO cells (cAg_34), one-site fit of MFI, mean of 3 experiments
Protocol: as §2, §1

[6] = molecular target: T2, recombinant human CD16A 158V, biotinylated mFc.silenced/Avi-tagged (human, UniProt P08637 17-208, biotinylated (Avi-tag)); assay: SPR (Biacore), 37 °C, multi-cycle kinetics, biotin-captured antigen as ligand, antibody construct as analyte, 1:1 binding model
T2 construct: not shown: silenced mouse Fc (mFc.silenced) and Avi-tag
T2 sequence (P08637 17-208 F176V limits assumed): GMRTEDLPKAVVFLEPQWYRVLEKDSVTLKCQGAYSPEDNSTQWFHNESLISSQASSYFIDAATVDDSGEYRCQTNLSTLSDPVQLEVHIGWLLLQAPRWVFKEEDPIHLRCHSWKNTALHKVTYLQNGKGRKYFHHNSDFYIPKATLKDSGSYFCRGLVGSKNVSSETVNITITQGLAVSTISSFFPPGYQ
Protocol: (§3) After each cycle, chip surfaces were regenerated with 6M guanidine-HCl, 0.25M NaOH and reloaded with Biotin Capture reagent. Interaction kinetics were determined by fitting data from multi-cycle kinetics experiments to a simple 1:1 interaction model using the local data analysis option (Rmax and RI) available within Biacore T200 Evaluation Software (v3.1). Referencing was done against a flow cell without captured ligand (Fc2-Fc1, Fc4-Fc3).
(§4) Affinity and kinetic parameters were evaluated for interaction with human CD16A and cynomolgus CD16 using a 1:1 Binding model.

[7] = molecular target: T3, recombinant human CD16A 158F, biotinylated mFc.silenced/Avi-tagged (human, UniProt P08637 17-208, biotinylated (Avi-tag)); assay: as above
T3 construct: not shown: silenced mouse Fc (mFc.silenced) and Avi-tag
T3 sequence (P08637 17-208): as the sequence (P08637 17-208 F176V limits assumed) above, with V160F counted along it
Protocol: as §3, §4

[8] = molecular target: T4, recombinant cynomolgus CD16, biotinylated mFc.silenced/Avi-tagged (cynomolgus, UniProt Q8SPW2 17-208, biotinylated (Avi-tag)); assay: as above
T4 construct: not shown: silenced mouse Fc (mFc.silenced) and Avi-tag
T4 sequence (Q8SPW2 17-208): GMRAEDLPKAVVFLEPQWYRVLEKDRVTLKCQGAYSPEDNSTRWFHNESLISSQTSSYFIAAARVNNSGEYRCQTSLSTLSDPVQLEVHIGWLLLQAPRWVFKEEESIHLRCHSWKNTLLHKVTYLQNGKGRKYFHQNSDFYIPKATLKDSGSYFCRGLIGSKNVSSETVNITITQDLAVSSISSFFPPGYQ
Protocol: as §3, §4

[9] = molecular target: T5, CD123 on CD123+ cells (EOL-1 and other CD123+ tumour or patient cells) (human, UniProt P26951 19-378); assay: flow cytometry on CD123+ EOL-1 cells, anti-human IgG-APC detection
T5 construct: whole, on cells; also called interleukin-3 receptor
T5 sequence (P26951 19-378): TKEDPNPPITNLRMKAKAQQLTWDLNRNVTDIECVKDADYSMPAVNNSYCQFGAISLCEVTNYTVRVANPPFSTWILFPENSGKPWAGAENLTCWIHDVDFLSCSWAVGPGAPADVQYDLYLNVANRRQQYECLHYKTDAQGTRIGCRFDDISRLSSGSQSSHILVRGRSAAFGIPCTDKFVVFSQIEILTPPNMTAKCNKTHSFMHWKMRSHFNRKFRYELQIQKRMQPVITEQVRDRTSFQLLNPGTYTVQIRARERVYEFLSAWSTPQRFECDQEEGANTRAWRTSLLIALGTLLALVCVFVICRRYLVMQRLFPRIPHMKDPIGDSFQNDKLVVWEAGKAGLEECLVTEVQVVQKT
Protocol: To analyze binding of CD123xCD16A antibody constructs to CD123+ EOL-1 cells, CD123− A-431 cells and CD123− Karpas-299 cells by flow cytometry, 1×10⁵ cells were resuspended in 100 μL FACS buffer in round-bottom 96-well microtiter plates. After washing in FACS buffer, cells were incubated in 100 μL FACS buffer without antibodies or with titrated antibodies starting at a concentration of 100 μg/mL followed by eight 10-fold serial dilutions for 45 min on ice in the dark. After washing twice, cells were incubated with APC-conjugated goat anti-human IgG (H+L)-APC (1/200 dilution) for 30 min on ice in the dark. After washing, binding was measured by flow cytometry and mean fluorescence intensities (MFI) of cell samples were calculated and corrected for background staining using control cells stained with secondary antibodies only.

T1 sequence (P08637 17-254 limits assumed): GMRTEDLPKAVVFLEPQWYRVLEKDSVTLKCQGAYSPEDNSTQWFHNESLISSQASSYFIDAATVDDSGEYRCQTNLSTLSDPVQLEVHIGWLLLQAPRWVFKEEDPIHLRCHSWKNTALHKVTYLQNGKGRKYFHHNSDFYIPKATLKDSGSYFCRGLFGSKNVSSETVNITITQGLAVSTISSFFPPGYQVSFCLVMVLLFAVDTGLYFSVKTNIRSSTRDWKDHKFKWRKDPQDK

EC50 (read off the curve) [1]: ~20 nM
Kd [2]: 56.2 nM
Kd [3]: 18.7 nM
Kd [4]: 37.9 nM
Kd [5]: 37.6 nM
Kd [6]: 0.75 nM
koff [6]: 0.00023 s⁻¹
kon [6]: 310000 M⁻¹ s⁻¹
Kd [7]: 1.25 nM
koff [7]: 0.00037 s⁻¹
kon [7]: 300000 M⁻¹ s⁻¹
Kd [8]: 2.48 nM
koff [8]: 0.00047 s⁻¹
kon [8]: 190000 M⁻¹ s⁻¹
B1: scFv-IgAb_148 (CD123-1xCD16a2) (bispecific antibody)
chain 1: QVQLQQSGAEVKKPGASVKVSCKASGYTFTDYYMKWVKQSHGKSLEWMGDIIPSNGATFYNQKFKGKATLTVDRSTSTAYMELSSLRSEDTAVYYCARSHLLRASWFAYWGQGTLVTVSSASTKGPSVFPLAPSSKSTSGGTAALGCLVKDYFPEPVTVSWNSGALTSGVHTFPAVLQSSGLYSLSSVVTVPSSSLGTQTYICNVNHKPSNTKVDKKVEPKSCDKTHTCPPCPAPEFEGGPSVFLFPPKPKDTLMISRTPEVTCVVVAVSHEDPEVKFNWYVDGVEVHNAKTKPREEQYNSTYRVVSVLTVLHQDWLNGKEYKCKVSNKALPAPIEKTISKAKGQPREPQVYTLPPSREEMTKNQVSLTCLVKGFYPSDIAVEWESNGQPENNYKTTPPVLDSDGSFFLYSKLTVDKSRWQQGNVFSCSVMHEALHNHYTQKSLSLSPGGGGGSGGGGSGGGGSGGGGSGGGGSGGGGSSYVLTQPSSVSVAPGQTATISCGGHNIGSKNVHWYQQRPGQSPVLVIYQDNKRPSGIPERFSGSNSGNTATLTISGTQAMDEADYYCQVWDNYSVLFGGGTKLTVLGGSGGSGGSGGSGGSGGSGGSQVQLVQSGAEVKKPGESLKVSCKASGYTFTSYYMHWVRQAPGQGLEWMGAIEPMYGSTSYAQKFQGRVTMTRDTSTSTVYMELSSLRSEDTAVYYCARGSAYYYDFADYWGQGTLVTVSS
chain 2: not shown
notes: also called CD123xCD16A scFv-IgAb_148; CD16a2xCD123-1

EC50 (read off the curve) [9]: ~0.4 nM
B2: scFv-IgAb_265 (CD123-1xCD16a2) (bispecific antibody)
chain 1: QVQLQQSGAEVKKPGASVKVSCKASGYTFTDYYMKWVKQSHGKSLEWMGDIIPSNGATFYNQKFKGKATLTVDRSTSTAYMELSSLRSEDTAVYYCARSHLLRASWFAYWGQGTLVTVSSASTKGPSVFPLAPSSKSTSGGTAALGCLVKDYFPEPVTVSWNSGALTSGVHTFPAVLQSSGLYSLSSVVTVPSSSLGTQTYICNVNHKPSNTKVDKKVEPKSCDKTHTCPPCPAPEFEGGPSVFLFPPKPKDTLMISRTPEVTCVVVAVSHEDPEVKFNWYVDGVEVHNAKTKPREEQYNSTYRVVSVLTVLHQDWLNGKEYKCKVSNKALPAPIEKTISKAKGQPREPQVYTLPPSREEMTKNQVSLTCLVKGFYPSDIAVEWESNGQPENNYKTTPPVLDSDGSFFLYSKLTVDKSRWQQGNVFSCSVMHEALHNHYTQKSLSLSPGGGGGSGGGGSGGGGSGGGGSGGGGSGGGGSSYELTQPLSVSVALGQTARITCGGHNIGSKNVHWYQQKPGQAPVLVIYQDNKRPSGIPERFSGSNSGNTATLTISRAQAGDEADYYCQVWDNYNVLFGCGTKLTVLGGSGGSGGSGGSGGSGGSGGSQVQLVQSGAEVKKPGASVKVSCKASGYTFTSYYMHWVRQAPGQCLEWMGAIEPRYGSTSYAQKFQGRVTMTRDTSTSTVYMELSSLRSEDTAVYYCARGSAYYYDFADYWGQGTLVTVSS
chain 2: not shown

EC50 (read off the curve) [9]: ~0.4 nM
Kd [6]: 0.43 nM
koff [6]: 0.0027 s⁻¹
kon [6]: 6.3e+06 M⁻¹ s⁻¹
Kd [7]: 0.567 nM
koff [7]: 0.0036 s⁻¹
kon [7]: 6.4e+06 M⁻¹ s⁻¹
Kd [8]: 2.4 nM
koff [8]: 0.013 s⁻¹
kon [8]: 5.2e+06 M⁻¹ s⁻¹
B3: scFv-IgAb_264 (CD123-2xCD16a2) (bispecific antibody)
chain 1: QVQLVQSGAEVKKPGASVKMSCKASGYTFTDYYMKWVKQAPGQGLEWIGDIIPSNGATFYNQKFKGKATLTVDRSISTAYMHLNRLRSDDTAVYYCTRSHLLRASWFAYWGQGTLVTVSSASTKGPSVFPLAPSSKSTSGGTAALGCLVKDYFPEPVTVSWNSGALTSGVHTFPAVLQSSGLYSLSSVVTVPSSSLGTQTYICNVNHKPSNTKVDKKVEPKSCDKTHTCPPCPAPEFEGGPSVFLFPPKPKDTLMISRTPEVTCVVVAVSHEDPEVKFNWYVDGVEVHNAKTKPREEQYNSTYRVVSVLTVLHQDWLNGKEYKCKVSNKALPAPIEKTISKAKGQPREPQVYTLPPSREEMTKNQVSLTCLVKGFYPSDIAVEWESNGQPENNYKTTPPVLDSDGSFFLYSKLTVDKSRWQQGNVFSCSVMHEALHNHYTQKSLSLSPGGGGGSGGGGSGGGGSGGGGSGGGGSGGGGSSYELTQPLSVSVALGQTARITCGGHNIGSKNVHWYQQKPGQAPVLVIYQDNKRPSGIPERFSGSNSGNTATLTISRAQAGDEADYYCQVWDNYNVLFGCGTKLTVLGGSGGSGGSGGSGGSGGSGGSQVQLVQSGAEVKKPGASVKVSCKASGYTFTSYYMHWVRQAPGQCLEWMGAIEPRYGSTSYAQKFQGRVTMTRDTSTSTVYMELSSLRSEDTAVYYCARGSAYYYDFADYWGQGTLVTVSS
chain 2: not shown
notes: also called CD123xCD16A ICE
